Results published in US20240374748A1 (University of California, published 2024).
Where a chain is given by its changes, count along the chain named. One block for each binder: values may come before it.

Assays:
[1] = target: T1, ALPP (human, UniProt P05187 23-506); experiment: FACS on live ALPP-transfected HEK293 cells
T1 construct: Expressed on transfected HEK293 cells; also called placentally expressed ALPP

[2] = target: T2, ALPL (UniProt P05186 18-501, limits assumed); experiment: FACS on live transfected HEK293 cells, IgG1
T2 construct: whole, on cells; Expressed on ALPL-transfected HEK293 cells; also called tissue-nonspecific, liver/bone/kidney alkaline phosphatase
T2 sequence (looked up): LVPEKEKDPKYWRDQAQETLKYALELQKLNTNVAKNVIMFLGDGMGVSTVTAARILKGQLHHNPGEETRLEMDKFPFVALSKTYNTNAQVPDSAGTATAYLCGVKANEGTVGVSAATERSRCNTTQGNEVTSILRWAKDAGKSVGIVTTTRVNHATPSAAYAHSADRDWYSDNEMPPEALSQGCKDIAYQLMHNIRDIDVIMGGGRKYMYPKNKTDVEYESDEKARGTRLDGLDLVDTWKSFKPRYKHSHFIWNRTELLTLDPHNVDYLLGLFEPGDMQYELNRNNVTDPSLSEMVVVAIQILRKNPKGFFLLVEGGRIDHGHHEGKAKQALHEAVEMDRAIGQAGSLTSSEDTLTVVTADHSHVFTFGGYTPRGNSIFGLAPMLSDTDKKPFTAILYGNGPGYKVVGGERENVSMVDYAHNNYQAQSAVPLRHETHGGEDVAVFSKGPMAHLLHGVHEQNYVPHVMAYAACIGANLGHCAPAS

[3] = target: T3, ALPPL2 (human, UniProt P10696 20-503); experiment: FACS on live HEK293 cells transfected with ALPPL2 (GFP+ gated), curve fit of normalized MFI; ALPPL2-transfected HEK293 cells
T3 construct: Expressed from an ALPPL2 plasmid or cDNA on HEK293 cells, and endogenous on tumor cells; also called placentally expressed ALPPL2; membrane ALPPL2
Experimental: (§1) Cells were incubated with antibody at room temperature for 1h in PBS/0.2% fetal calf serum, washed three times and further incubated with ALEXAFLOU®-647-labeled anti-human secondary antibody. GFP+ cells were gated and analyzed for mean fluorescence intensity (MFI). […] Similar binding results were obtained on ALPP-transfected cells. There is no binding to ALPL-transfected cells.

[4] = target: T3, ALPPL2; experiment: apparent affinity on tumor cells, IgG1; method and cell line not stated; tumor cells, IgG1 form
[5] = target: T4, ALPI (UniProt P09923 20-503, limits assumed); experiment: FACS on live transfected HEK293 cells, IgG1
T4 construct: whole, on cells; Expressed on ALPI-transfected HEK293 cells; also called intestinal alkaline phosphatase
T4 sequence (looked up): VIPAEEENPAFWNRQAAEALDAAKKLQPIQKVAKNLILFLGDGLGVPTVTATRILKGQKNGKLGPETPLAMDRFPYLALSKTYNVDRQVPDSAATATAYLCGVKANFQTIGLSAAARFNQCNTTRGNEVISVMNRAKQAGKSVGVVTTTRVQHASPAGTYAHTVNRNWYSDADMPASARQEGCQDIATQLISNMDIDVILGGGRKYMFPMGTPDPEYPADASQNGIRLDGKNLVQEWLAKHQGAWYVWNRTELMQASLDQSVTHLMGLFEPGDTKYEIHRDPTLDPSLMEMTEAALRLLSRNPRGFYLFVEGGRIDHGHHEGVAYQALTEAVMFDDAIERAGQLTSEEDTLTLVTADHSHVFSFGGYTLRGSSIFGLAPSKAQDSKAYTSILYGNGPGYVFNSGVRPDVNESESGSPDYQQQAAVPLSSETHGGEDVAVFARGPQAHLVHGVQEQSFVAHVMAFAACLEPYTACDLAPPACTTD

[6] = target: T3, ALPPL2; experiment: FACS on live HEK293 cells transfected with ALPPL2 (GFP+ gated), curve fit of normalized MFI
Experimental: as §1, with “either ALPL or ALPI-transfected” for “ALPL-transfected”

T3 sequence (P10696 20-503 limits assumed): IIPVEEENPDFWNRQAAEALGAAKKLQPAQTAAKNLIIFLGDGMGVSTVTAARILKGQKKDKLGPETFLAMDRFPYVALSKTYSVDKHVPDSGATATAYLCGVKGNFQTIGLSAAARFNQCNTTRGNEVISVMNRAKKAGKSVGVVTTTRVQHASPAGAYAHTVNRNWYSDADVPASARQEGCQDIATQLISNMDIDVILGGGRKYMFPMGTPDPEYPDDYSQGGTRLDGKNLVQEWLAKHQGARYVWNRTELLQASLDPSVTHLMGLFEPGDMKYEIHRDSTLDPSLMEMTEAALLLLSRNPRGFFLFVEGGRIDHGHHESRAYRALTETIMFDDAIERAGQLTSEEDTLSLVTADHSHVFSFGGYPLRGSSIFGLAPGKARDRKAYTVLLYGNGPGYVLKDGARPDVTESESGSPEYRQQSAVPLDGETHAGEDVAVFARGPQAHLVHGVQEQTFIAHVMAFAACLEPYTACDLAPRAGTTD
T1 sequence (P05187 23-506 limits assumed): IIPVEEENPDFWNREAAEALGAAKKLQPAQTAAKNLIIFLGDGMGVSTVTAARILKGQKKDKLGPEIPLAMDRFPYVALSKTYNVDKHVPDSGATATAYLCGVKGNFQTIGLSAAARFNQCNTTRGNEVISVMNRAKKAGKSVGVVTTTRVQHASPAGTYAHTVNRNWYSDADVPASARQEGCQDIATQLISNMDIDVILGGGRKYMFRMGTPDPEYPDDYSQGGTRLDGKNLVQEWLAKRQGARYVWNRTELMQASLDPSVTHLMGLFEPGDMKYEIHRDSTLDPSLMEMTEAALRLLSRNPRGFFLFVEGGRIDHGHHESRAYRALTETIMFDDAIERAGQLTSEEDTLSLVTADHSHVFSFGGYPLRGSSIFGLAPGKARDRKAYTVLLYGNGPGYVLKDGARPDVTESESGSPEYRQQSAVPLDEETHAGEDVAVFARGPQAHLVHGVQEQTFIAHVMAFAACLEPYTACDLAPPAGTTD

B2: M25FYIA IgG1 (antibody, V domains shown)
VH: QVQLQQSGGGLVKPGGSLRLSCAASGFTFSSYAMHWVRQAPGKGLEWVAVISYDGSNKYYADSVKGRFTISRDNSKNTLYLQMDSLRAEDTAVYYCAKEGDSSRWSYDLWGRGTLVTVSS
VL: QSALTQPASVSGSPGQSITISCTGTSSDVGGYNYVSWYQQHPGKAPKVMIYDVTNRPSGVSNRFSGSKSGNTASLTISGLQAEDEADYYCSSYTIASTLVVFGGGTKLTVL
notes: Tested as human IgG1
binding result [1]: binds
binding result [2]: no binding
Kd [3]: 20.4 pM

B3: M25AD IgG1 (antibody, V domains shown)
VH: B2 VH with A33D, Y95F
VL: B2 VL with I95S, A96T
notes: Tested in its IgG1 form; also called a variant of M25
Kd [4]: 28 pM

Next, values leading:

binding result [1]: binds
binding result [2]: no binding
Kd [3]: 17 pM
B1: M25ADLF IgG1 (antibody, V domains shown)
VH: B2 VH with A33D, Y95F
VL: QSALTQPASVSGSPGQSITISCTGTSSDVGGYNYVSWYQQHPGKAPKVMIYDVTNRPSGVSNRFSGSKSGNTASLTISGLQAEDEADYYCSSYTSTSTFVVFGGGTKLTVLG
notes: Tested as human IgG1; Residue limits are from CLM-00120

binding result [1]: binds
binding result [2]: no binding
binding result [5]: no binding
Kd [6]: 506 pM
B4: M25 IgG1 (antibody, V domains shown)
VH: B2 VH with Y95F
VL: B2 VL with I95S, A96T
notes: also called our M25 antibody; our anti-ALPPL2 antibody M25
